One assay has as its target HLA-B*8201 (B82) (human). Kind of assay: Luminex, regular beads (#7), 1:4.
Assay [1] concerns the target HLA-Cw*0102 (Cw1) (human). Kind of assay: Luminex, regular beads (#7), 1:4.
Assay [2] concerns the target HLA-Cw*0202 (Cw2) (human). Nature of the assay: Luminex, regular beads (#7), 1:4.
Assay [3] deals with HLA-Cw*0302 (Cw10) (human). Nature of the assay: Luminex, regular beads (#7), 1:4.
For assay [4], the target named is HLA-Cw*0303 (Cw9) (human). Nature of the assay: Luminex, regular beads (#7), 1:4.
The target in assay [5] is HLA-Cw*0304 (Cw10) (human). Kind of assay: Luminex, regular beads (#7), 1:4.
Assay [6] has as its target HLA-Cw*0401 (Cw4) (human). Nature of the assay: Luminex, regular beads (#7), 1:4.
Assay [7] deals with HLA-Cw*0602 (Cw6) (human). Kind of assay: Luminex, regular beads (#7), 1:4.
Assay [8] concerns the target HLA-Cw*0702 (Cw7) (human). Nature of the assay: Luminex, regular beads (#7), 1:4.
For assay [9], the target named is HLA-Cw*1203 (Cw12) (human). Kind of assay: Luminex, regular beads (#7), 1:4.
In assay [10] the target is HLA-Cw*1402 (Cw14) (human). Nature of the assay: Luminex, regular beads (#7), 1:4.
The target in assay [11] is HLA-Cw*1502 (Cw15) (human). Nature of the assay: Luminex, regular beads (#7), 1:4.
Assay [12] addresses HLA-Cw*1601 (Cw16) (human). Nature of the assay: Luminex, regular beads (#7), 1:4.
Assay [13] addresses HLA-Cw*1701 (Cw17) (human). Kind of assay: Luminex, regular beads (#7), 1:4.
The target of assay [14] is HLA-Cw*1802 (Cw18) (human). Kind of assay: Luminex, regular beads (#7), 1:4.
Assay [15] has as its target HLA-B*0702 (B7) (human). Kind of assay: Luminex regular beads (#7), IVIg diluted 1:4.
Assay [16] deals with HLA-B*0801 (B8) (human). Kind of assay: Luminex regular beads (#7), IVIg diluted 1:4.
The target in assay [17] is HLA-B*1301 (B13) (human). Nature of the assay: Luminex regular beads (#7), IVIg diluted 1:4.
Assay [18] addresses HLA-B*1302 (B13) (human). Nature of the assay: Luminex regular beads (#7), IVIg diluted 1:4.
The target in assay [19] is HLA-B*1401 (B64) (human). Nature of the assay: Luminex regular beads (#7), IVIg diluted 1:4.
Assay [20] has as its target HLA-B*1402 (B65) (human). Kind of assay: Luminex regular beads (#7), IVIg diluted 1:4.
In a further assay the target is HLA-B*1501 (B62) (human). Kind of assay: Luminex regular beads (#7), IVIg diluted 1:4.
In the next assay the target is HLA-B*1502 (B75) (human). Nature of the assay: Luminex regular beads (#7), IVIg diluted 1:4.
Assay [21] concerns the target HLA-B*1503 (B72) (human). Kind of assay: Luminex regular beads (#7), IVIg diluted 1:4.
The target in assay [22] is HLA-B*1510 (B71) (human). Nature of the assay: Luminex regular beads (#7), IVIg diluted 1:4.
Assay [23] has as its target HLA-B*1511 (B75) (human). Kind of assay: Luminex regular beads (#7), IVIg diluted 1:4.
Assay [24] addresses HLA-B*1516 (B63) (human). Kind of assay: Luminex regular beads (#7), IVIg diluted 1:4.
Another assay concerns the target HLA-B*1801 (B18) (human). Nature of the assay: Luminex regular beads (#7), IVIg diluted 1:4.
Assay [25] addresses HLA-B*0702 (B7) (human). Nature of the assay: iBead MFI against regular-bead MFI, IVIg diluted 1:4.
For assay [26], the target named is HLA-B*0801 (B8) (human). The description is as above.
Assay [27] addresses HLA-B*1301 (B13) (human). The assay is described as above.
The target in assay [28] is HLA-B*1302 (B13) (human). The description is as above.
The target in assay [29] is HLA-B*1401 (B64) (human). Described as above.
Assay [30] has as its target HLA-B*1402 (B65) (human). The assay is described as above.
For assay [31], the target named is HLA-B*1503 (B72) (human). Described as above.
The target in assay [32] is HLA-B*1510 (B71) (human). The description is as above.
Assay [33] has as its target HLA-B*1511 (B75) (human). The description is as above.
For the next assay, the target named is HLA-B*1512 (B76) (human). The assay is described as above.
For the next assay, the target named is HLA-B*1513 (B77) (human). Described as above.
Assay [34] has as its target HLA-B*1516 (B63) (human). The assay is described as above.
The target of assay [35] is HLA-A*6901 (A69) single antigen on Luminex beads (human). Kind of assay: Luminex single antigen bead assay, regular beads (#7), IVIg 1:4.
Assay [36] has as its target HLA-A*7401 (A74) single antigen on Luminex beads (human). The description is as above.
For assay [37], the target named is Albumin on negative control beads (serum albumin, HSA/BSA) (human or bovine). Kind of assay: Luminex, iBead MFI against regular bead MFI, 1:8.
For assay [38], the target named is HLA-A*0301 (A3) on single antigen beads (human) (UniProt P04439). Nature of the assay: Luminex, iBead MFI against regular bead MFI, 1:8.
In assay [39] the target is HLA-B*4601 (B46) single antigen on Luminex beads (human). Nature of the assay: Luminex single antigen, regular beads (#7), IVIg 1:8.
Assay [40] has as its target Albumin on negative control beads (serum albumin, HSA/BSA) (human or bovine). Nature of the assay: Luminex single antigen beads, regular beads (#7), 1:8.
For assay [41], the target named is HLA-A*0301 (A3) on single antigen beads (human) (UniProt P04439). Described as above.

This note sets out measurements from US10800847.

Turning to “IVIg Sandoglobulin (Novartis, Basel, Switzerland) (antibody)”, the MFI amounted to 639 MFI with HLA-B*8201 (B82) (human); 998 MFI in [1]; 1280 MFI in assay [2]; 1024 MFI in assay [3]; 703 MFI in assay [4]; 844 MFI in assay [5]. The MFI stood at 1570 MFI in assay [6]; 1560 MFI in [7]; 1970 MFI in [8]; 985 MFI in [9]; 991 MFI in assay [10]; 778 MFI in [11]. For the same substance, the MFI in assay [12] was found to be 973 MFI; in [13] it was 1490 MFI; in [14] it was 1550 MFI; in the assay with HLA-B*0702 (B7) (human) [15], 309 MFI; with HLA-B*0801 (B8) (human) [16], 233 MFI; in the assay with HLA-B*1301 (B13) (human) [17], 524 MFI. For the same substance, the MFI was 476 MFI with HLA-B*1302 (B13) (human) [18]; 621 MFI with HLA-B*1401 (B64) (human) [19]; 239 MFI with HLA-B*1402 (B65) (human) [20]; 0 MFI in the assay with HLA-B*1501 (B62) (human); 157 MFI in the assay with HLA-B*1502 (B75) (human); 0 MFI in the assay with HLA-B*1503 (B72) (human) [21]. The MFI amounted to 240 MFI in the assay with HLA-B*1510 (B71) (human) [22]; 637 MFI with HLA-B*1511 (B75) (human) [23]; 799 MFI in the assay with HLA-B*1516 (B63) (human) [24]; 0 MFI in the assay with HLA-B*1801 (B18) (human); 470 MFI in assay [35]; 0 MFI in assay [36]. Also, the Difference % (iBead vs regular bead) in the assay with HLA-B*0702 (B7) (human) [25] was 41%; with HLA-B*0801 (B8) (human) [26], 18%; with HLA-B*1301 (B13) (human) [27] it was -4%; in the assay with HLA-B*1302 (B13) (human) [28] it was 5%; with HLA-B*1401 (B64) (human) [29] it was -67%; with HLA-B*1402 (B65) (human) [30], -36%. Also, the Difference % (iBead vs regular bead) with HLA-B*1503 (B72) (human) [31] was 0%; with HLA-B*1510 (B71) (human) [32] it was 13%; in the assay with HLA-B*1511 (B75) (human) [33] it was -13%; with HLA-B*1512 (B76) (human), 199%; with HLA-B*1513 (B77) (human) it was -19%; with HLA-B*1516 (B63) (human) [34], -5%.

As for “Octagam (IVIg, Octapharma, Lachen, Switzerland) (antibody)”, the results for the Difference % (iBead against regular bead) in [37] and in [38] were -29% and -100%, respectively. Besides, the MFI in assay [39] is 2440 MFI; in assay [40], 2340 MFI; in assay [41] it was 515 MFI.
